Reference: the supplement of paper PMC10065799, “High-throughput profiling of sequence recognition by tyrosine kinases and SH2 domains using bacterial peptide display” (eLife, 2023)

Legend:
[1] = tested on: Fer (mouse); test: phosphorylation enrichment, bacterial display (enrichment ratio); higher = better substrate or ligand; peptides without Tyr show the background
[2] = target: MERTK (UniProt Q12866); test: as above
[3] = tested on: c-Src; test: as above
[4] = target: Jak2 (UniProt O60674); test: as above
[5] = tested on: AncSZ; test: as above
[6] = target: Fyn (UniProt P06241); test: as above
[7] = target: EPHB1 (UniProt P54762); test: as above
[8] = target: FGFR1 (UniProt P11362); test: as above
[9] = tested on: c-Abl (mouse); test: as above
[10] = target: Hck (UniProt P08631); test: as above
[11] = target: Fes (UniProt P07332); test: as above
[12] = target: FGFR3 (UniProt P22607); test: as above
[13] = target: EPHB2 (UniProt P29323); test: as above
[14] = target: c-Src SH2; test: SH2 binding enrichment of the phosphorylated peptide, bacterial display (enrichment ratio); higher = better substrate or ligand; peptides without Tyr show the background
[15] = target: Grb2 SH2 (UniProt P62993); test: as above
[16] = target: SHP2-C SH2; test: as above
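Wherever SH2 binding enrichment of the phosphorylated peptide, bacterial display is given: peptide library displayed on the E. coli surface as eCPX fusions, selected cells deep-sequenced, score is each peptide's frequency after selection divided by its frequency in the input.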
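Wherever phosphorylation enrichment, bacterial display is given: 11-residue human phosphosite peptides and single-mutation variants displayed on the E. coli surface, counted by deep sequencing, each peptide's frequency after selection divided by its frequency in the unselected input library; frequency after pTyr selection over input frequency; kinase dosed for 20-30% of maximal phosphorylation in three min.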

Chain of FGFR3 (P22607 whole entry, looked up): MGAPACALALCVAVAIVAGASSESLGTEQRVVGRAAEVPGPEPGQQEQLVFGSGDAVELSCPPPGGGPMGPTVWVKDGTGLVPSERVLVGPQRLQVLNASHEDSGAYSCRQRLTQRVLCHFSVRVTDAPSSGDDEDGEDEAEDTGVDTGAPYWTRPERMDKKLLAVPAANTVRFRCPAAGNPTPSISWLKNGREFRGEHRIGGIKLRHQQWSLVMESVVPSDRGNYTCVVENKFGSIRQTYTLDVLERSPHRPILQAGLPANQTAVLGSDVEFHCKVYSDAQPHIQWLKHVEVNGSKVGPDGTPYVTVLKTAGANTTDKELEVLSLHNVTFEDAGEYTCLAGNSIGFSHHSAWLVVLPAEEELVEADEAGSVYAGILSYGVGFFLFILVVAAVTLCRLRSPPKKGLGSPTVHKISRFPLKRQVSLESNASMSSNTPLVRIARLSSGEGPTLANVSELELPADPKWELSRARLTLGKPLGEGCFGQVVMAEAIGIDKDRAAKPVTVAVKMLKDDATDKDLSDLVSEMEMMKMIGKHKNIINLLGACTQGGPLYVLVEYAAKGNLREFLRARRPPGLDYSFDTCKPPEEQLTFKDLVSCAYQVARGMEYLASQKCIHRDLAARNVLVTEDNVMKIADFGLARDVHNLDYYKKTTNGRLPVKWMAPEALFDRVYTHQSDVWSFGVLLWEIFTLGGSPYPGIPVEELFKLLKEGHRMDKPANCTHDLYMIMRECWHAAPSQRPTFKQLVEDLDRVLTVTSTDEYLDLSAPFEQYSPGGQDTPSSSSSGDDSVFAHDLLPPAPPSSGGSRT
Chain of EPHB2 (P29323 whole entry, looked up): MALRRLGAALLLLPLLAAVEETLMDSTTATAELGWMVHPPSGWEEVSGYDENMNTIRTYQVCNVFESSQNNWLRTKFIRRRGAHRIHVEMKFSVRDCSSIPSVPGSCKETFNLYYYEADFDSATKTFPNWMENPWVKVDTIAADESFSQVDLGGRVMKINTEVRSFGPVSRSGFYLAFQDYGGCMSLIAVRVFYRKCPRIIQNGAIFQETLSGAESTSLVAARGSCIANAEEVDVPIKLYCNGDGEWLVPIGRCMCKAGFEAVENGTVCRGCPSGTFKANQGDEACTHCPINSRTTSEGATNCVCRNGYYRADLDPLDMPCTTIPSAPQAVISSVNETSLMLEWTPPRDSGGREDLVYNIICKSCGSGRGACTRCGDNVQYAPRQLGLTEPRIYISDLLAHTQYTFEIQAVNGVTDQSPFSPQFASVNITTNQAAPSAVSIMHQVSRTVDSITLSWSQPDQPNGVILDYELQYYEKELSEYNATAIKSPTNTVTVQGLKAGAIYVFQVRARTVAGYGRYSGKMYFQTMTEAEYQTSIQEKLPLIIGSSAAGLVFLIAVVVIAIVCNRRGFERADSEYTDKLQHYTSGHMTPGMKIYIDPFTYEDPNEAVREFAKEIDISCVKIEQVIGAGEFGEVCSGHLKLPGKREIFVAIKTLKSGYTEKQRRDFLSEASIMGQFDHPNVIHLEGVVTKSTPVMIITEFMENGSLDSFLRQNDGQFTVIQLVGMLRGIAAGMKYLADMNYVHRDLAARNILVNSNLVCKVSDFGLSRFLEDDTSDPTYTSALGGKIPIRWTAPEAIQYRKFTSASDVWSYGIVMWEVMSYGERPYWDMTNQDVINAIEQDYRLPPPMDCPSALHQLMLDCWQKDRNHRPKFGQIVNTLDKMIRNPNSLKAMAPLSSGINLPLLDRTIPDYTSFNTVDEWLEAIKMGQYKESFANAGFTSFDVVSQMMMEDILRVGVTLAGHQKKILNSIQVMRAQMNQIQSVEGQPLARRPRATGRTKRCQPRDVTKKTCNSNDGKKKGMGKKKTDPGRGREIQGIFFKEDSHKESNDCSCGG
Chain of FGFR1 (P11362 whole entry, looked up): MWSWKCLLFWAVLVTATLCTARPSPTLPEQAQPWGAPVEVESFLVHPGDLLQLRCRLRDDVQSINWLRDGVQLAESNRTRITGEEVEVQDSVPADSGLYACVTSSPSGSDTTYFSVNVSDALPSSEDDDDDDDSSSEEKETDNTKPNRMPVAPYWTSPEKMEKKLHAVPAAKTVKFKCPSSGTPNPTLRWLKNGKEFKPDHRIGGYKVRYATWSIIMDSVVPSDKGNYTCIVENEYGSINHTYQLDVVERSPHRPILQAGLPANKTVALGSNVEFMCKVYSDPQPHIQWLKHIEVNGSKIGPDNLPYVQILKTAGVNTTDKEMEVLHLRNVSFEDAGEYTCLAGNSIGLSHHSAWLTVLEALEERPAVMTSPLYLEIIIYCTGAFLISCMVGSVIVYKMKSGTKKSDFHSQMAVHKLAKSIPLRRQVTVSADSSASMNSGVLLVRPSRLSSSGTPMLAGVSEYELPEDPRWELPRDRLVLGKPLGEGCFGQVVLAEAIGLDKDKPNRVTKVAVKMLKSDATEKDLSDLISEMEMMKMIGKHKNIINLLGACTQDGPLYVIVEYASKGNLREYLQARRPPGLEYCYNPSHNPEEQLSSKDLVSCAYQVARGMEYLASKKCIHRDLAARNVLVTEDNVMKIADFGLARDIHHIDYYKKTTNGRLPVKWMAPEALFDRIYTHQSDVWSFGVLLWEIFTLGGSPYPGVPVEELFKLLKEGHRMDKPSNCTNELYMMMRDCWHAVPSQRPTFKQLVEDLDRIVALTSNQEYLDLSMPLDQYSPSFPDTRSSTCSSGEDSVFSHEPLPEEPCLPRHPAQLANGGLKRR
Chain of Jak2 (O60674 whole entry, looked up): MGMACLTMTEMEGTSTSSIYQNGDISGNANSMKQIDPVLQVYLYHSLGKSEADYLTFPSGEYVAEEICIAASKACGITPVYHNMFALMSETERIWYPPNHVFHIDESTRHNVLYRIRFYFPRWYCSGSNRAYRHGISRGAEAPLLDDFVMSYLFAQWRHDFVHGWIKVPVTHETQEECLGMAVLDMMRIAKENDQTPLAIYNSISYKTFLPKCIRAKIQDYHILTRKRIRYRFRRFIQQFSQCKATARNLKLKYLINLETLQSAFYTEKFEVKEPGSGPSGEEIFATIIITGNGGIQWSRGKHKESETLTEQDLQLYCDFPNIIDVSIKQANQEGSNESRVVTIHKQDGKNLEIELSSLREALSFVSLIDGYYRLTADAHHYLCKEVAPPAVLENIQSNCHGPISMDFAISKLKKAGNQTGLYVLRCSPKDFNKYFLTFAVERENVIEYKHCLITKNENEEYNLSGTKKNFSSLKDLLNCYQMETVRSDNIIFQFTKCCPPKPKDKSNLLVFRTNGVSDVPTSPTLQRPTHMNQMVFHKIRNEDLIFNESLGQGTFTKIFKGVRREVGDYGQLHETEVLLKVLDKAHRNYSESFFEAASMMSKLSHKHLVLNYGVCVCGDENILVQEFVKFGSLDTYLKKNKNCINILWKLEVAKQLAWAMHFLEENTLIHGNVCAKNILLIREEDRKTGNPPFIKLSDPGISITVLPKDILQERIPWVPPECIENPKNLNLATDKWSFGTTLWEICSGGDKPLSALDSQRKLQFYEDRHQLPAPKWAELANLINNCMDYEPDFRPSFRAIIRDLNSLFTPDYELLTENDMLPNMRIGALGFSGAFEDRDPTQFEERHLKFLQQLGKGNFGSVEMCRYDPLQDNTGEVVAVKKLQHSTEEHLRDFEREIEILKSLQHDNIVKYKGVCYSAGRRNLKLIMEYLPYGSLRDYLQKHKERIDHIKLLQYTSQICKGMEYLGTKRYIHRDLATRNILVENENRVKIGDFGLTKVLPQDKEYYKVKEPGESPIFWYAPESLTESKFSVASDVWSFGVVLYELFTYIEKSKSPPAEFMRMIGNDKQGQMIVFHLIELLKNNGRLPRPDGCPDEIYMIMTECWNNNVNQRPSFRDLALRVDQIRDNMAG
Chain of EPHB1 (P54762 whole entry, looked up): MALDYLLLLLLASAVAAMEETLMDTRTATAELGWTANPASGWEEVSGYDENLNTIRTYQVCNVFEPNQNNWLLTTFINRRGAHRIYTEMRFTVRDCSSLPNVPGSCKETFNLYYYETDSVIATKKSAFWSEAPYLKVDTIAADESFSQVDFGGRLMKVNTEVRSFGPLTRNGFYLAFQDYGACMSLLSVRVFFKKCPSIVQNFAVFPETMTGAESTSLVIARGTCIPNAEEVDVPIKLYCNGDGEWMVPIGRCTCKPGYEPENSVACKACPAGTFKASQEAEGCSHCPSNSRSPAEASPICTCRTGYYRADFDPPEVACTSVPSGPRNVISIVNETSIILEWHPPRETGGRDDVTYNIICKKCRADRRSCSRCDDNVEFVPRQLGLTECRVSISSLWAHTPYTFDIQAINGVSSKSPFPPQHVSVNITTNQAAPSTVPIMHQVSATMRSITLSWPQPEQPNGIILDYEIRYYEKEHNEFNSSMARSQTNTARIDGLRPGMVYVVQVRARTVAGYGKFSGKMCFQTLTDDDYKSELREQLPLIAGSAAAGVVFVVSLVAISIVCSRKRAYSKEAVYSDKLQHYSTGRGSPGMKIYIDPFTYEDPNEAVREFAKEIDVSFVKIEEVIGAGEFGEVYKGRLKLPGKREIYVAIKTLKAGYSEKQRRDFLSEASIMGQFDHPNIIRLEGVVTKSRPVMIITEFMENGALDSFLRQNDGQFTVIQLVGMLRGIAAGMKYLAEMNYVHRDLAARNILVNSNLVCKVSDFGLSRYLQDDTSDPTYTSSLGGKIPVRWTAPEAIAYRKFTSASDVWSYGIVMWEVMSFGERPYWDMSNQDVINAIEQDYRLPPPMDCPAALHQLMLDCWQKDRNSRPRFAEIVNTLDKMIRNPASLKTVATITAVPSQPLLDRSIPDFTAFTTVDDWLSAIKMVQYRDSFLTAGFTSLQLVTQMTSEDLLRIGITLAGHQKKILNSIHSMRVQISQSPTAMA

| Sequence | SH2 binding enrichment [14] | SH2 binding enrichment [15] | SH2 binding enrichment [16] | phosphorylation enrichment [1] | phosphorylation enrichment [2] | phosphorylation enrichment [3] | phosphorylation enrichment [4] | phosphorylation enrichment [5] | phosphorylation enrichment [6] | phosphorylation enrichment [7] | phosphorylation enrichment [8] | phosphorylation enrichment [9] | phosphorylation enrichment [10] | phosphorylation enrichment [11] | phosphorylation enrichment [12] | phosphorylation enrichment [13] |
| --- | --- | --- | --- | --- | --- | --- | --- | --- | --- | --- | --- | --- | --- | --- | --- | --- |
| RRNTFYASIAK [ACADM_Y353_YF] | 1.09 | 0.772 | 1.68 | 0.367 | 0.474 | 0.638 | 0.511 | 0.605 | 0.482 | 0.453 | 0.442 | 0.509 | 0.463 | 0.622 | 0.583 | 0.455 |
| RSLLQYGGSAN [ANK1_Y624] | 0.482 | 0.749 | 0.716 | 0.8 | 0.439 | 0.459 | 0.626 | 0.964 | 0.537 | 0.709 | 0.574 | 1.01 | 0.813 | 0.857 | 0.772 | 0.717 |
| RSRQIYDAYIM [GRK3_Y109] | 0.683 | 0.822 | 0.727 | 14.6 | 8.17 | 11 | 1.15 | 0.914 | 15.2 | 3 | 0.511 | 6.11 | 10.4 | 0.807 | 0.8 | 6.14 |
| RSSGPYGGGGQ [HNRNPA1_Y341] | 0.606 | 0.961 | 0.623 | 0.518 | 0.625 | 0.56 | 0.485 | 0.811 | 0.715 | 0.466 | 0.589 | 0.643 | 0.616 | 0.686 | 0.441 | 0.485 |
| RSSKMYFKTRS [LPL_Y329_L330F] | 0.459 | 0.884 | 0.747 | 0.764 | 0.712 | 0.856 | 0.989 | 1.2 | 0.667 | 0.685 | 0.701 | 1.07 | 0.634 | 1.22 | 0.561 | 0.567 |
| SEQNNYSRVAN [CWC22_Y797_R794Q] | 1.66 | 0.784 | 3.97 | 0.497 | 0.4 | 0.35 | 0.535 | 0.705 | 0.458 | 1.14 | 0.43 | 0.447 | 0.458 | 0.534 | 0.437 | 0.878 |
| SETSRYLSELF [KCNJ3_Y67_D70E] | 0.588 | 0.883 | 0.774 | 0.376 | 0.382 | 0.346 | 0.783 | 1.07 | 0.397 | 0.467 | 0.509 | 0.535 | 0.464 | 0.882 | 0.537 | 0.498 |
| SFPSTYRYERG [INPPL1_Y661_P659S] | 0.633 | 0.987 | 0.728 | 0.418 | 0.455 | 0.463 | 0.767 | 0.484 | 0.439 | 0.453 | 0.39 | 0.52 | 0.392 | 0.813 | 0.449 | 0.397 |
| SFTDPYAQPPL [KMT2D_Y2378_YF] | 0.534 | 0.651 | 0.656 | 0.411 | 0.468 | 0.54 | 0.722 | 0.787 | 0.531 | 0.475 | 0.487 | 0.502 | 0.502 | 0.832 | 0.607 | 0.527 |
| SHLLRYLSWTV [CLCNKB_Y93] | 0.553 | 0.9 | 0.724 | 0.478 | 0.37 | 0.368 | 1.06 | 1.24 | 0.468 | 0.553 | 0.684 | 0.781 | 0.544 | 1.23 | 0.7 | 0.528 |
| SIKHKYVTALY [KCNH2_Y611_D609H] | 0.484 | 0.761 | 0.63 | 0.398 | 0.407 | 0.398 | 0.528 | 0.537 | 0.43 | 0.399 | 0.45 | 0.444 | 0.524 | 0.582 | 0.594 | 0.4 |
| SIKNKYVTALF [KCNH2_Y611_D609N_YF] | 0.671 | 0.994 | 1.06 | 0.371 | 0.41 | 0.41 | 0.566 | 0.672 | 0.402 | 0.394 | 0.417 | 0.487 | 0.465 | 0.653 | 0.507 | 0.459 |
| SLDLSYYHTSS [EMD_Y181_P183H] | 0.867 | 0.746 | 0.692 | 0.453 | 0.578 | 0.524 | 1.71 | 1.05 | 0.543 | 0.765 | 1.53 | 0.603 | 0.554 | 0.951 | 1.19 | 0.58 |
| SLDLSYYPTSS [EMD_Y181] | 1.27 | 0.921 | 0.819 | 0.507 | 0.661 | 0.583 | 4.37 | 1.42 | 0.515 | 0.614 | 2.62 | 0.803 | 0.617 | 0.947 | 2.18 | 0.566 |
| SLKEFYGEDAK [ALDH3A1_Y272] | 0.511 | 0.916 | 0.599 | 0.588 | 0.388 | 0.44 | 0.903 | 0.929 | 0.51 | 0.434 | 0.472 | 0.561 | 0.501 | 1.08 | 0.692 | 0.472 |

Further lines, with some results ahead:

| SH2 binding enrichment [14] | SH2 binding enrichment [15] | SH2 binding enrichment [16] | Sequence | phosphorylation enrichment [1] | phosphorylation enrichment [2] | phosphorylation enrichment [3] | phosphorylation enrichment [4] | phosphorylation enrichment [5] | phosphorylation enrichment [6] | phosphorylation enrichment [7] | phosphorylation enrichment [8] | phosphorylation enrichment [9] | phosphorylation enrichment [10] | phosphorylation enrichment [11] | phosphorylation enrichment [12] | phosphorylation enrichment [13] |
| --- | --- | --- | --- | --- | --- | --- | --- | --- | --- | --- | --- | --- | --- | --- | --- | --- |
| 0.562 | 0.876 | 0.648 | RSACTYLAPHL [PLK3_Y615_S618P] | 0.589 | 1.02 | 2.74 | 1.59 | 2.67 | 1.1 | 1.88 | 0.691 | 6.67 | 1.45 | 1.02 | 0.71 | 1.25 |
| 0.641 | 1.04 | 0.498 | RSACTYLASHL [PLK3_Y615] | 0.519 | 0.433 | 0.417 | 0.575 | 0.703 | 0.468 | 0.534 | 0.509 | 0.564 | 0.4 | 0.909 | 0.792 | 0.641 |
| 0.914 | 1.03 | 0.677 | RSAGKYDVFLI [MECP2_Y120_YF] | 0.618 | 0.561 | 0.533 | 0.775 | 0.558 | 0.556 | 0.697 | 0.352 | 0.85 | 0.714 | 0.758 | 0.748 | 0.563 |
| 0.595 | 0.947 | 0.749 | RSDEDYLCREE [POR_Y573_Y575C] | 0.951 | 0.785 | 0.765 | 1.34 | 1.54 | 0.716 | 0.747 | 0.623 | 1.01 | 0.769 | 2.34 | 1.27 | 0.737 |
| 2.87 | 1.67 | 3.94 | RSPLRYTSILT [OR51B6_Y130] | 0.492 | 0.392 | 0.392 | 0.655 | 0.679 | 0.64 | 0.426 | 0.536 | 0.632 | 0.443 | 0.843 | 0.431 | 0.532 |
| 0.593 | 0.779 | 0.917 | RSRSSYTHGLN [MYCT1_Y116] | 0.705 | 0.883 | 1.23 | 0.916 | 1.42 | 0.956 | 1 | 0.588 | 0.981 | 0.935 | 1.35 | 0.88 | 0.882 |
| 0.993 | 1.15 | 3.87 | SEKISYVYMKR [SSX7_Y48_L43S] | 0.387 | 0.385 | 0.444 | 0.964 | 0.912 | 0.469 | 0.553 | 0.6 | 0.538 | 0.479 | 0.967 | 0.748 | 0.504 |
| 0.561 | 0.874 | 0.739 | SELVCYDARVH [MET_Y971_R970C] | 0.49 | 0.496 | 0.482 | 0.867 | 1.07 | 0.603 | 0.592 | 0.547 | 0.721 | 0.816 | 1.14 | 0.679 | 0.673 |
| 0.755 | 1.02 | 0.764 | SFCFRYCCAAR [SUMF1_Y344_R345C_YF] | 0.517 | 0.445 | 0.397 | 1.02 | 1.25 | 0.487 | 0.659 | 0.504 | 0.7 | 0.436 | 1.23 | 0.723 | 0.611 |
| 1.01 | 1.19 | 0.752 | SGRSGYCLGTR [SCO1_Y60_P58S] | 0.399 | 0.55 | 0.424 | 0.617 | 0.586 | 0.341 | 0.309 | 0.518 | 0.514 | 0.348 | 0.834 | 0.432 | 0.535 |
| 0.528 | 0.748 | 0.747 | SGSFRYGSSCE [SELE_Y390] | 0.353 | 0.388 | 0.466 | 0.644 | 0.642 | 0.45 | 0.412 | 0.393 | 0.486 | 0.47 | 0.801 | 0.554 | 0.456 |
| 0.477 | 0.728 | 0.723 | SHPSSYTTHPQ [NIPBL_Y195] | 0.467 | 0.463 | 0.478 | 0.492 | 0.412 | 0.441 | 0.362 | 0.459 | 0.417 | 0.46 | 0.82 | 0.404 | 0.384 |
| 1.27 | 1.77 | 1.62 | SIFKDYFRFNF [PLA2G2D_Y85_YF] | 0.428 | 0.579 | 0.643 | 2.8 | 1.18 | 0.495 | 0.523 | 3.99 | 0.821 | 0.481 | 1.19 | 2.58 | 0.537 |
| 0.446 | 0.804 | 0.764 | SKDQIYPMKLK [RANBP17_Y823] | 0.336 | 0.355 | 0.572 | 0.493 | 0.451 | 0.417 | 0.29 | 0.386 | 0.449 | 0.361 | 0.533 | 0.437 | 0.458 |
| 0.349 | 0.581 | 0.557 | SKNSKYNAGST [PSEN1_Y315_E318G] | 0.436 | 0.536 | 0.737 | 0.608 | 0.535 | 0.59 | 0.307 | 0.358 | 0.677 | 0.442 | 0.776 | 0.439 | 0.654 |
| 1.45 | 0.938 | 1.1 | SLFNGYVFSGM [NEIL3_Y71_V76M_YF] | 0.504 | 0.435 | 0.482 | 1.08 | 0.954 | 0.421 | 0.532 | 0.487 | 0.697 | 0.531 | 1.07 | 0.629 | 0.541 |
| 0.727 | 0.741 | 0.59 | SLGKGYYDGGC [MC4R_Y35_S36Y] | 0.648 | 0.514 | 0.543 | 1.03 | 0.96 | 0.611 | 0.65 | 0.635 | 0.841 | 0.552 | 1.33 | 0.68 | 0.591 |
| 0.501 | 1.06 | 0.563 | SLGSPYGQPPR [PDLIM4_Y137] | 0.356 | 0.378 | 0.461 | 0.484 | 0.747 | 0.553 | 0.413 | 0.426 | 0.486 | 0.365 | 0.771 | 0.526 | 0.448 |
